Earlier results on one substance are cited in publication PMC5244385.

As usually defined, the Kd is the constant that tells how readily two partners part at equilibrium.

The target in the series is Fibrinogen (Homo sapiens) (UniProt P02671).
UniProt P02671, sequence (P02671 36-866, chain 1 of 3): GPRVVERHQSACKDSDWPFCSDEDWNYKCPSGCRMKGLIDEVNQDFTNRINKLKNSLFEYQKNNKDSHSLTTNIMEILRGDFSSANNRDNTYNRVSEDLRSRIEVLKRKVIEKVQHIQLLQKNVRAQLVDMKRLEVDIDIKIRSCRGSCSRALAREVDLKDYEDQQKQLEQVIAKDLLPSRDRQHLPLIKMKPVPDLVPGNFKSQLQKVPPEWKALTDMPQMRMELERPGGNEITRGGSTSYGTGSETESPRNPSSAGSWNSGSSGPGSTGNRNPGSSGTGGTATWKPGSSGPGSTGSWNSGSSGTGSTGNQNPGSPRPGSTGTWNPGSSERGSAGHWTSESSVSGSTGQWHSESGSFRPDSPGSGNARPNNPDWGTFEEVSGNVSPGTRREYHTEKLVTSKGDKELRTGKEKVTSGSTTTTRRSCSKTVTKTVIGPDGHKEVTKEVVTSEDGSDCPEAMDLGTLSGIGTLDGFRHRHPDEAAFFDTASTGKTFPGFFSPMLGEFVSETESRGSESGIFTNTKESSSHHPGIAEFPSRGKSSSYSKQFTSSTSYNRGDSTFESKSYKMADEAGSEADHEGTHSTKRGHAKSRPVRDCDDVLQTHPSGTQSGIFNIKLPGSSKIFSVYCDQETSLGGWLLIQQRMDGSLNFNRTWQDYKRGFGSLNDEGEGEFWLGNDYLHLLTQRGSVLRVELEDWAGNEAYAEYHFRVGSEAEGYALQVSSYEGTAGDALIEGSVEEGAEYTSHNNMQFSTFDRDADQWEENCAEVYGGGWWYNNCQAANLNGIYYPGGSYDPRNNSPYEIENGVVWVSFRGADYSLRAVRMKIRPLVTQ
UniProt P02671, sequence (P02675 45-491, chain 2 of 3, further chain): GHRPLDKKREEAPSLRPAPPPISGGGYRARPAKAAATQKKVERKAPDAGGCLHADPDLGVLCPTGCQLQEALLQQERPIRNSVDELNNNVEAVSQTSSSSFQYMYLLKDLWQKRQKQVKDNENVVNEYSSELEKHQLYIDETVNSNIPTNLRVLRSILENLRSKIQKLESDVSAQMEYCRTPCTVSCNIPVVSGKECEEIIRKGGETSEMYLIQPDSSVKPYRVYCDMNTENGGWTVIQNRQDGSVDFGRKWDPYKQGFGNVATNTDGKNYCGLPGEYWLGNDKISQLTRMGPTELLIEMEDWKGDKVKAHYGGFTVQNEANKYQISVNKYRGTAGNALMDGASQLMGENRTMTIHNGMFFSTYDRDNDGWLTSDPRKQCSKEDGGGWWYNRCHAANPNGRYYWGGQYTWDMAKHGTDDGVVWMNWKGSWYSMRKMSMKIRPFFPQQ
UniProt P02671, sequence (P02679 27-453, chain 3 of 3, further chain): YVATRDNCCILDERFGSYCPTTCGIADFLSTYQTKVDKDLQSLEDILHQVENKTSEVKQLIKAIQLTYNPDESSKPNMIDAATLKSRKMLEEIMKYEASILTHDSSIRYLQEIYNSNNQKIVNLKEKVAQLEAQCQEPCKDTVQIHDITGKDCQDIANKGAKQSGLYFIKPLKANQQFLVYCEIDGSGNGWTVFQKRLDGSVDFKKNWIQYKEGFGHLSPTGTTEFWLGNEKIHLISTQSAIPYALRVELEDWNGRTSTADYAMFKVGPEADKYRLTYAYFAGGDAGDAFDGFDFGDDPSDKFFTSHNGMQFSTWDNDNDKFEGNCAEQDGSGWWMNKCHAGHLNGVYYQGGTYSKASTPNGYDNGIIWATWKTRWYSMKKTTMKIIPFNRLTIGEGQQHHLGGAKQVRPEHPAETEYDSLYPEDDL

With Clumping factor A (from UniProt Q53653), the dissociation constant (Kd) is 510 nM.
